Measurements taken from US20250195658A1 (ST JUDE CHILDREN S RESEARCH HOSPITAL, published 2025).
No end group written: not given here. *: point of attachment. Biotin = O=C1N[C@H]2[C@H](CS[C@H]2CCCCC(=O)*)N1; Ahx = NCCCCCC(=O)O

Tests used:
[1] = biological target: T1, Recombinant Human IL3RA protein conjugated to APC (Creative BioMart, CAT #IL3RA-3248HA) (human, UniProt P26951 19-305, limits assumed, conjugated to APC); assay: flow cytometry of CAR T cells stained with APC-conjugated recombinant human IL3RA (FIG. 2B)
T1 construct: also called recombinant CD123 protein; Recombinant CD123
T1 sequence (looked up): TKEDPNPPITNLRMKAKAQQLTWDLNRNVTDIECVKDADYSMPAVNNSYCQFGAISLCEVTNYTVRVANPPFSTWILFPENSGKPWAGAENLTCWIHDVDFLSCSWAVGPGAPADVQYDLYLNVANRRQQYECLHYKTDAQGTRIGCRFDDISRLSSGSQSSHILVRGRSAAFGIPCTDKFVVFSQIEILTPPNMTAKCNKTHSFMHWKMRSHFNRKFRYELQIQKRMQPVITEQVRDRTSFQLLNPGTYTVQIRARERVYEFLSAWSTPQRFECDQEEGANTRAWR
Protocol: (§1) Flow cytometric analysis. Cells were stained with fluorochrome-conjugated primary antibodies for 30 min at room temperature and washed with FACS buffer (5% FBS in 1×PBS) prior to analysis. Cell surface GRP78 was detected by a GRP78-specific peptide with an N-terminal Biotin tag (Biotin-Ahx-[…]; SEQ ID NO: 126) was obtained from Genscript (Piscataway, NJ) in combination with Streptavidin PE (BioLegend, San Diego, CA. CCAT #405204) using a 2-step staining protocol. Cells were incubated with GRP78 peptide for 30 minutes at room temperature, protected from light. Cells were washed twice prior to staining with additional antibodies. Recombinant CD123 Recombinant Human IL3RA protein conjugated to APC (Creative BioMart, CAT #IL3RA-3248HA) was used to detect CD123 scFv binding. The following antibodies were purchased from BD Biosciences: CCR7 Pacific Blue (BD Pharmigen, Clone G043H7 CAT #353210), CD45RO PerCP-Cy5.5 (BD Pharmigen, Clone UCHL1, CAT #560607), CD123 APC (BD Pharmigen, Clone 7G3, CAT #560087), CD3 BV421 (BD Horizon, Clone SK7, CAT #563797), CD3 BV786 (BD Horizon, Clone SK7, CAT #563800), CD19 PE-Cy7 (BD Pharmigen, Clone HIB19, CAT #560728), CD20 BV650 (BD Horizon, Clone 2H7, CAT #563780). […]

[2] = biological target: T2, cell surface glucose-regulated-protein 78 (GRP78) (UniProt P11021 19-654, limits assumed); assay: flow cytometry on cell lines, 2-step staining with Streptavidin PE
T2 construct: whole, on cells; also called GRP78 antigen; HSPA5
Protocol: as §1

T2 sequence (P11021 19-654 limits assumed): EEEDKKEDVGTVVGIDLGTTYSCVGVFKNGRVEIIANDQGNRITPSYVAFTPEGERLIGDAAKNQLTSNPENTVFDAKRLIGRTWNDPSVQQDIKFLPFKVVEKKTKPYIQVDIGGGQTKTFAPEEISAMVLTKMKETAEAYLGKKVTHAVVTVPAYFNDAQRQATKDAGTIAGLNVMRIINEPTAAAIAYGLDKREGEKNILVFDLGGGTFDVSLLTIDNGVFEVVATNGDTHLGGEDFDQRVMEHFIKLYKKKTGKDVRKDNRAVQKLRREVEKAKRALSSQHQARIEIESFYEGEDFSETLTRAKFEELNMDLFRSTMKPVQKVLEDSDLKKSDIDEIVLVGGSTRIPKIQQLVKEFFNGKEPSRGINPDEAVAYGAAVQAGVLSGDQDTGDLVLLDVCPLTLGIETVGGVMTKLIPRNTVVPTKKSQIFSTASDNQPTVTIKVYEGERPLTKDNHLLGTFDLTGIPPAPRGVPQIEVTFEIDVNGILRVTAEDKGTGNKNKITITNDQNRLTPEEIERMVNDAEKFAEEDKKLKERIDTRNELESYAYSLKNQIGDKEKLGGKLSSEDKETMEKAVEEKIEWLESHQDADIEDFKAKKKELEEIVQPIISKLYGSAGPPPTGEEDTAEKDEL

B1: GRP78-GPcPcPc-CD123-CAR (other)
chain: CTVALPGGYVRVCEFAGSGGSGGSGGSPVPSTPPTNSSSTPPTPSPSPVPSTPPTNSSSTPPTPSPSPVPSTPPTNSSSTPPTPSPSASAAAQVQLQQPGAELVRPGASVKLSCKASGYTFTSYWMNWVKQRPDQGLEWIGRIDPYDSETHYNQKFKDKAILTVDKSSSTAYMQLSSLTSEDSAVYYCARGNWDDYWGQGTTLTVSSGGGGSGGGGSGGGGSDVQITQSPSYLAASPGETITINCRASKSISKDLAWYQEKPGKTNKLLIYSGSTLQSGIPSRFSGSGSGTDFTLTISSLEPEDFAMYYCQQHNKYPYTFGGGTKLEIKSIEVMYPPPYLDNEKSNGTIIHVKGKHLCPSPLFPGPSKPFWVLVVVGGVLACYSLLVTVAFIIFWVRSKRSRLLHSDYMNMTPRRPGPTRKHYQPYAPPRDFAAYRSRVKFSRSADAPAYQQGQNQLYNELNLGRREEYDVLDKRRGRDPEMGGKPRRKNPQEGLYNELQKDKMAEAYSEIGMKGERRRGKGHDGLYQGLSTATKDTYDALHMQALPPR
[1]
  % of transduced T cells positive for recombinant CD123 protein: 83.6%

B2: GRP78-G4S3-CD123-CAR (other)
chain: CTVALPGGYVRVCEFGGGGSGGGGSGGGGSAAAQVQLQQPGAELVRPGASVKLSCKASGYTFTSYWMNWVKQRPDQGLEWIGRIDPYDSETHYNQKFKDKAILTVDKSSSTAYMQLSSLTSEDSAVYYCARGNWDDYWGQGTTLTVSSGGGGSGGGGSGGGGSDVQITQSPSYLAASPGETITINCRASKSISKDLAWYQEKPGKTNKLLIYSGSTLQSGIPSRFSGSGSGTDFTLTISSLEPEDFAMYYCQQHNKYPYTFGGGTKLEIKSIEVMYPPPYLDNEKSNGTIIHVKGKHLCPSPLFPGPSKPFWVLVVVGGVLACYSLLVTVAFIIFWVRSKRSRLLHSDYMNMTPRRPGPTRKHYQPYAPPRDFAAYRSRVKFSRSADAPAYQQGQNQLYNELNLGRREEYDVLDKRRGRDPEMGGKPRRKNPQEGLYNELQKDKMAEAYSEIGMKGERRRGKGHDGLYQGLSTATKDTYDALHMQALPPR
notes: Residues from 510 on (spacer RSGVDSG, T2A, tCD19) are also left out; also called 78.(G4S)3.123; G4S2
[1]
  % of transduced T cells positive for recombinant CD123 protein: 87.5%

B3: GRP78-specific peptide with an N-terminal Biotin tag (Biotin-Ahx-CTVALPGGYVRVC) (peptide)
peptide: {Biotin-Ahx}-CTVALPGGYVRVC
modifications: cysteine pairing not given here
notes: Obtained from Genscript; Detected with Streptavidin PE in a 2-step staining; also called GRP78-biotin; GRP78 peptide
[2]
  binding result: binds
